Substitutions are numbered along the chain they refer to.
T1: 2-CysPRXA C54S (pseudo-reduced variant) (Arabidopsis, UniProt Q96291 66-266, C54S)
T1 sequence: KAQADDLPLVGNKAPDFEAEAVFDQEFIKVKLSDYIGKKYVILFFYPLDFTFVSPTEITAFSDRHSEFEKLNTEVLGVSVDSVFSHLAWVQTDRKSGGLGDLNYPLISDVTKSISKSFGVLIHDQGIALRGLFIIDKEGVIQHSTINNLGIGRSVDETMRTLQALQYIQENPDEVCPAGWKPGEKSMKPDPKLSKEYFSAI

T2: 2-CysPRXA C54S (pseudo-reduced variant) (Arabidopsis, UniProt Q96291 66-266, C54S)
T2 construct: 2-Cys peroxiredoxin A, Arabidopsis; source: E. coli BL21, recombinant (pET28a)
T2 sequence (looked up): T1 sequence

T3: 2-cysteine peroxiredoxin A, wild type (2-CysPRXA WT) (Arabidopsis, UniProt Q96291 66-266)
T3 sequence (looked up): T1 sequence with S54C

T4: 2-cysteine peroxiredoxin A, wild type (2-CysPRXA WT) (Arabidopsis, UniProt Q96291 66-266)
T4 chain: T1 sequence with S54C

B1: CHLOROPLAST PROTEIN 12-1, recombinant hisx6-tagged (natural protein, Arabidopsis thaliana, UniProt O22914 48-124, looked up)
chain: TSEGEISEKVEKSIQEAKETCADDPVSGECVAAWDEVEELSAAASHARDKKKAGGSDPLEEYCNDNPETDECRTYDN
notes: Calvin cycle protein CP12-1, Arabidopsis thaliana; also called CP12-1; CHLOROPLAST REGULATOR; source: E. coli BL21, recombinant
B2: LIPOXYGENASE 2, recombinant hisx6-tagged (enzyme, Arabidopsis thaliana, UniProt P38418 71-896, looked up)
chain: QNIKVKGYITAQEEFLEGITWSRGLDDIADIRGRSLLVELISAKTDQRITVEDYAQRVWAEAPDEKYECEFEMPEDFGPVGAIKIQNQYHRQLFLKGVELKLPGGSITFTCESWVAPKSVDPTKRIFFSDKSYLPSQTPEPLKKYRKEELETLQGKNREEVGEFTKFERIYDYDVYNDVGDPDNDPELARPVIGGLTHPYPRRCKTGRKPCETDPSSEQRYGGEFYVPRDEEFSTAKGTSFTGKAVLAALPSIFPQIESVLLSPQEPFPHFKAIQNLFEEGIQLPKDAGLLPLLPRIIKALGEAQDDILQFDAPVLINRDRFSWLRDDEFARQTLAGLNPYSIQLVEEWPLISKLDPAVYGDPTSLITWEIVEREVKGNMTVDEALKNKRLFVLDYHDLLLPYVNKVRELNNTTLYASRTLFFLSDDSTLRPVAIELTCPPNINKPQWKQVFTPGYDATSCWLWNLAKTHAISHDAGYHQLISHWLRTHACTEPYIIAANRQLSAMHPIYRLLHPHFRYTMEINARARQSLVNGGGIIETCFWPGKYALELSSAVYGKLWRFDQEGLPADLIKRGLAEEDKTAEHGVRLTIPDYPFANDGLILWDAIKEWVTDYVKHYYPDEELITSDEELQGWWSEVRNIGHGDKKDEPWWPVLKTQDDLIGVVTTIAWVTSGHHAAVNFGQYGYGGYFPNRPTTTRIRMPTEDPTDEALKEFYESPEKVLLKTYPSQKQATLVMVTLDLLSTHSPDEEYIGEQQEASWANEPVINAAFERFKGKLQYLEGVIDERNVNITLKNRAGAGVVKYELLKPTSEHGVTGMGVPYSISI
notes: Lipoxygenase 2, Arabidopsis thaliana; the limits follow from them; also called LOX2; 13-LIPOXYGENASE; source: E. coli BL21, recombinant (pET15b)

What was measured:
[1] = biological target: T1, 2-CysPRXA C54S (pseudo-reduced variant); assay: ITC; oxidized (unit printed as M)
[2] = biological target: T2, 2-CysPRXA C54S (pseudo-reduced variant); assay: ITC; CP12-1 injected into 2-CysPRXA C54S under oxidizing conditions (proteins treated with 1 mM H2O2, dialysed); 35 mM HEPES pH 8.0; conditions: both partners purified
[3] = biological target: T3, 2-cysteine peroxiredoxin A, wild type …; assay: cell-based or functional assay
[4] = biological target: T3, 2-cysteine peroxiredoxin A, wild type …; assay: ITC; LOX2 injected into 2-CysPRX WT under reducing conditions (proteins treated with 10 mM DTT, dialysed); 35 mM HEPES pH 8.0; conditions: both partners purified
[5] = biological target: T4, 2-cysteine peroxiredoxin A, wild type …; assay: ITC; reduced (unit printed as M)

Binder	Ka [1] [M⁻¹]	stoichiometry N [2]	LOX2-catalysed peroxidation of α-linolenic acid (absorbance at 234 nm), 0.5 µM LOX2 with 0.5 µM oxidized 2-CysPRXA; rate against LOX2 alone [3] [fold]	LOX2-catalysed peroxidation of α-linolenic acid (absorbance at 234 nm), 0.5 µM LOX2 with 0.5 µM reduced 2-CysPRXA; rate against LOX2 alone [3] [fold]	stoichiometry N [4]	Ka [5] [M⁻¹]
B1	3.91e+06	~1	–	–	–	–
B2	–	–	2.4	1.4	~1	4.18e+07

— paper PMC7346168, “Redox Conformation-Specific Protein–Protein Interactions of the 2-Cysteine Peroxiredoxin in Arabidopsis” (Antioxidants, 2020)
